Test results from US7169567 (GENERAL HOSPITAL, dated 2007).
Where no end group is shown, it is not given here.

Key:
Assay in all cases: cell-based or functional assay
[1] = target: T1, truncated rat PTH-1 receptor rΔNt (rat, UniProt P25961 182-591)
T1 sequence: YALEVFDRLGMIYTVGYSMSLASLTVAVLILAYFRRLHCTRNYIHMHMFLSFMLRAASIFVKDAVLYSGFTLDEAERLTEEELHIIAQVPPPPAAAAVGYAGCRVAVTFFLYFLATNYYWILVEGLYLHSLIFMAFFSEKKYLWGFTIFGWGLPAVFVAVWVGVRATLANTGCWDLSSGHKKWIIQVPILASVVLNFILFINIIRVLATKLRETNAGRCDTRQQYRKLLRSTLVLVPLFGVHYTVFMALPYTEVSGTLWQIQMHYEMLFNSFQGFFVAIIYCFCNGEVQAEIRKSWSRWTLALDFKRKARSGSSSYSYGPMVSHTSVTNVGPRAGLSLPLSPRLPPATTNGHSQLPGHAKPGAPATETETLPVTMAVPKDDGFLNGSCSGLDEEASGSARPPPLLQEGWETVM

human PTH-1 receptor = target: T2, human PTH-1 receptor (human, UniProt Q03431 27-593)
T2 sequence (looked up): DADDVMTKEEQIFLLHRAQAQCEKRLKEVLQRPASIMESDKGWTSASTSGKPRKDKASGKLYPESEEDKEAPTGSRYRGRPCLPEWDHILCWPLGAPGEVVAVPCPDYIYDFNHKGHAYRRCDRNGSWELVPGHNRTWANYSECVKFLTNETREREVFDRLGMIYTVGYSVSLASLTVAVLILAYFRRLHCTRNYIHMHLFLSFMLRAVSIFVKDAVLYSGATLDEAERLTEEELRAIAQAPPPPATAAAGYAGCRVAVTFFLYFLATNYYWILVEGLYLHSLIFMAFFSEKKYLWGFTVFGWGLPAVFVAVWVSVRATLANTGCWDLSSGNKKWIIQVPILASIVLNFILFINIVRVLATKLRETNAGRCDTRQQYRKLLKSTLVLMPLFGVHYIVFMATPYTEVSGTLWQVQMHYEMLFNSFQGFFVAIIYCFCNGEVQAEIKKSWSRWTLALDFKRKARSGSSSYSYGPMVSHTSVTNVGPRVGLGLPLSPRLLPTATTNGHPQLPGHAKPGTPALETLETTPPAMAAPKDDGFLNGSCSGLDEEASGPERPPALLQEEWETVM

[2] = target: intact rat PTH-1 receptor with HA epitope tag (rWT-HA) (rat, UniProt P25961 23-92; P25961 27-591)
Chain of intact rat PTH-1 receptor with HA epitope tag (rWT-HA) (P25961 whole entry, one chain of several): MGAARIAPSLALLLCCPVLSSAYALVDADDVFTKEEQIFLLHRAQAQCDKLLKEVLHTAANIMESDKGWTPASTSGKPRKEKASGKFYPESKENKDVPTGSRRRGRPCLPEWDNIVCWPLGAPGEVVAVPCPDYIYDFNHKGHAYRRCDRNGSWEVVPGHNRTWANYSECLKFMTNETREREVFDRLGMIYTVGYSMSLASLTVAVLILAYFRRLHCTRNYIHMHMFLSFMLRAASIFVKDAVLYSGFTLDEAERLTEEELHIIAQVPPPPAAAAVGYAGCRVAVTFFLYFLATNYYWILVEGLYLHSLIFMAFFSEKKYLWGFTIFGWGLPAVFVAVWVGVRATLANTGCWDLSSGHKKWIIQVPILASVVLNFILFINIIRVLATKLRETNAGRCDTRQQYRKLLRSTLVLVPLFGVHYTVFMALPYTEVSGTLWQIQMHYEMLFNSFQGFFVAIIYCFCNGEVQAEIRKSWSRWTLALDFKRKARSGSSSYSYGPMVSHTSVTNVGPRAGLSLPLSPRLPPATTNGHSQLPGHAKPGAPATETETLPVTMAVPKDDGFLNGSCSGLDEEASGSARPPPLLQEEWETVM

AVSEIQLMHNLGKH-NH2 (peptide, UniProt P04089 32-45, looked up) [rat PTH(1-14)]
cAMP potency relative to PTH(1-34) [1]: 2 orders of magnitude
cAMP formation over the basal level (human PTH-1 receptor): ~20 fold
cAMP potency relative to PTH(1-34) (human PTH-1 receptor): ~5 orders of magnitude
cAMP formation [2]: 15 fold
